Source: patent US20240174750A1 (VIRTUOSO BINCO, published 2024)

T1: extracellular domain (ECD) of cyno CD47 (4aa-126aa) with C-terminal 6xHis tag (cynomolgus monkey, UniProt Q08722 19-140 (human entry), limits assumed)
T1 construct: also called cynomolgus monkey CD47
T1 chain: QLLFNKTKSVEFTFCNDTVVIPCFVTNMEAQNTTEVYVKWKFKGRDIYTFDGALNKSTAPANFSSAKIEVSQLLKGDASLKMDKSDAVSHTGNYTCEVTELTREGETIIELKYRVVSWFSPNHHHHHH


How the values were obtained:
[1] = biological target: T2, extracellular domain (ECD) of human CD47 (19aa-139aa) with C-terminal 6xHis tag (human, UniProt Q08722 19-139); assay: SPR, Biacore 8K, antibody captured by anti-human Fc, monomeric CD47 ECD injected, 25 C, 1:1 Langmuir
T2 construct: also called recombinant CD47; recombinant human CD47
Protocol: Furthermore, binding kinetics measurements of the anti-CD47 antibodies were not affected by antibody valency in the SPR assays because antibodies were immobilized and challenged with monomeric antigens. SPR was performed on a Biacore 8K instrument (GE Healthcare). Antibodies were captured on Biacore Series S CM5 sensor chips coated with a monoclonal mouse anti-human IgG (Fc) antibody (GE Healthcare human antibody capture kit). Serial 3-fold dilutions of CD47 ECD antigen were injected at a flow rate of 30 μL/min. Each sample was analyzed with 1 min association and 10 min dissociation at room temperature (25° C.). After each injection, the chip was regenerated using 3M MgCl₂. A 1:1 Langmuir model of simultaneous fitting of kon and koff was used for kinetics analysis.

[2] = biological target: T3, CD47 on the surface of CD47+ cells (human, UniProt Q08722 19-323); assay: flow cytometry, competition with SIRPA-mIgG2a on CD47+ tumor cells; IC50 as grade, legend the 8th table, row 26
T3 construct: whole, on cells; also called CD47+ cell lines; CD47 on Raji cells, HCT-15 cells, human red blood cells (RBCs), human platelets
Protocol: Tumor cells were harvested, centrifuged, and then resuspended in FACS buffer (PBS plus 2% FBS) at a concentration of 2×10⁶ cells/mL. 100 μL of the cell suspension was dispensed into each well of a 96-well plate. The plate was centrifuged for 5 min and 300×g, and the supernatants were discarded. […] After washing twice with FACS buffer, the plates were resuspended with 300 μL FACS buffer and analyzed by flow cytometry.

[3] = biological target: T2, extracellular domain (ECD) of human …; assay: ELISA, coated recombinant CD47; EC50 as grade, legend the 6th table, row 26
Protocol: A 96-well plate was coated overnight at 4° C. with 1 μg/ml recombinant CD47. After washing 3 times, the plate was blocked with 300 μL 1% BSA in PBST at 37° C. for 1 hour. Serially diluted antibodies were added and incubated at 37° C. for 1 hour. The plate was then washed 4 times with PBST and incubated with 1:5000 diluted 2nd antibody (Sigma, Cat #A0293) at 37° C. for 1 hour.

[4] = biological target: T3, CD47 on the surface of CD47+ cells; assay: flow cytometry on CD47+ cell lines; EC50 as grade, legend the 7th table, row 26
Protocol: Antibody binding to CD47+ cell lines was quantified by flow cytometry. Harvested cells were centrifuged at 2000 rpm for 5 min, resuspended in 10-15 mL ice-cold culture medium, and then counted. Cells were resuspended in blocking buffer (PBS plus 2% FBS) at a concentration of 3×10⁶ cells/mL. 100 μL of the cell suspension was dispensed into each well of a 96-well plate. Purified antibodies were diluted to the desired concentrations with blocking buffer and 100 μL of diluted antibodies were added to the well and incubated for 1 hour at 4° C. The cells were then washed 3 times with PBS plus 2% FBS. […] The cells were then washed 3 times with 200 μL PBS by centrifuging at 2000 rpm for 5 min. After the last wash, the cells were resuspended in 300 μL cold PBS and analyzed on a FACSVerse™ (BD Biosciences) flow cytometer.

[5] = biological target: T1, extracellular domain (ECD) of cyno CD47 …; assay: ELISA, coated recombinant CD47, FIG. 4A-4B
Protocol: (§1) A 96-well plate was coated overnight at 4° C. with 1 μg/mL recombinant CD47. After washing 3 times, the plate was blocked with 300 μL 100 BSA in PBST at 37° C. for 1 hour. Serially diluted antibodies were added and incubated at 37° C. for 1 hour. The plate was then washed 4 times with PBST and incubated with 1:5000 diluted peroxidase labeled goat anti-human IgG (Fab specific) secondary antibody (Sigma, Cat #A0293) for 1 hour at 37° C. The plate was washed again 4 times with PBST, incubated with 3,3′,5,5′-tetramethylbenzidine (TMB) substrate for 15 min at room temperature, terminated with 1N HCl, and then read at 450 nm.

[6] = biological target: T2, extracellular domain (ECD) of human …; assay: ELISA, coated recombinant CD47, FIG. 4A-4B
Protocol: as §1

Kd [1] [nM] | IC50 [2] [nM] | EC50 [3] [nM] | EC50 [4] [nM] | binding result [5] | binding result [6] | Binder
10 to 100 | 0.1 to 1 | 0.01 to 0.1 | 0.5 to 5 | – | – | R.18B9 (antibody, human IgG1, kappa, V domains shown, Chimeric: rabbit variable domains, human IgG1 and human kappa constant regions; also called Chimeric antibody 18B9) VH: QSLEESGGDLVKPGASLTLTCKASGFSFNSGYMCWVRQAPGKGLEWIACIYAGSSGKTYYASWATGRFTISKTSSTTVTLQMTSLTVADTATYFCARDDGGTYYTDYLYLWGPGTLVTVSS VL: DVVMTQTPASVEAAVGGTVTIKCQASEGISSYLSWYQQKPGQPPKLLIYKASTLTSGVPSRFKGSGSGTDFTLTISDLESADAATYYCQCTYGSSGSSGYGAAFGGGTEVVVKR
– | – | – | – | binds | binds | hu.1D15E11-V1 (antibody, human IgG1, kappa, V domains shown, Humanised variant of 1D15E11; also called hu.1D15E11-Vi; hu.1D15E11 variants) VH: EVQLVQSGAEVKKPGASVKVSCKASGYTFTSYVMHWVRQAPGQRLEWMGYIDPYNEGTKYNEKFKGRVTITRDTSASTAYMELSSLRSEDTAVYYCSRGGMARRSFDYWGQGTLVTVSS VL: DIQMTQSPSSLSASVGDRVTITCLASQTIGTWLTWYQQKPGKAPKLLIYAATTLAEGVPSRFSGSGSGTDFTLTISSLQPEDFATYYCQQLYSTPWTFGGGTKVEIKR
– | – | – | – | binds | binds | hu.1D15E11-V3 (antibody, human IgG1, kappa, V domains shown, Humanised variant of 1D15E11; also called hu.1D15E11 variants) VH: EVQLVQSGAEVKKPGASVKVSCKASGYTFTSYVMHWVRQAPGQRLEWMGYIDPYNEGTKYNEKFKGRVTITRDTSASTAYMELSSLRSEDTAVYYCSRGGIARRSFDYWGQGTLVTVSS VL: DIQMTQSPSSLSASVGDRVTITCLASQTIGTWLTWYQQKPGKAPKLLIYAATTLAEGVPSRFSGSGSGTDFTLTISSLQPEDFATYYCQQLYSTPWTFGGGTKVEIKR
– | – | – | – | binds | binds | hu.1D15E11-V4 (antibody, human IgG1, kappa, V domains shown, Humanised variant of 1D15E11; also called hu.1D15E11 variants) VH: EVQLVQSGAEVKKPGASVKVSCKASGYTFTSYVMHWVRQAPGQRLEWMGYIDPYNEGTKYNEKFKGRVTITRDTSASTAYMELSSLRSEDTAVYYCSRGGVARRSFDYWGQGTLVTVSS VL: DIQMTQSPSSLSASVGDRVTITCLASQTIGTWLTWYQQKPGKAPKLLIYAATTLAEGVPSRFSGSGSGTDFTLTISSLQPEDFATYYCQQLYSTPWTFGGGTKVEIKR
– | – | – | – | binds | binds | hu.1D15E11-V2 (antibody, human IgG1, kappa, V domains shown, Humanised variant of 1D15E11; also called hu.1D15E11 variants) VH: EVQLVQSGAEVKKPGASVKVSCKASGYTFTSYVMHWVRQAPGQRLEWMGYIDPYNEGTKYNEKFKGRVTITSDTSASTAYMELSSLRSEDTAVYYCSRGGMARRSFDYWGQGTLVTVSS VL: DIQMTQSPSSLSASVGDRVTITCLASQTIGTWLTWYQQKPGKAPKLLIYAATTLAEGVPSRFSGSGSGTDFTLTISSLQPEDFATYYCQQLYSTPWTFGGGTKVEIKR
1 to 10 | 0.1 to 1 | 0.01 to 0.1 | 0.1 to 0.5 | – | – | M.1D15E11 (antibody, human IgG1, kappa, V domains shown, Chimeric: mouse variable domains, human IgG1 and human kappa constant regions; also called Chimeric antibody 1D15E11) VH: EVQLQQSGPELVKPGAPVKMSCKASGYTFTSYVMHWVKQKPGQGLEWIGYIDPYNDGTKYNEKFKGKATLTSDKSSSTAYMELSSLTSEDSAVYYCSRGGMARRSFDYWGQGTTLTVSS VL: DIQMTQSPASQSASLGESVTITCLASQTIGTWLTWYQQKPGKSPQLLIYAATTLADGVPSRFSGSGSGTKFSFKISSLQAEDFVSYYCQQLYSTPWTFGGGTKLEIKR
